In article PMC5789954 (Proceedings of the National Academy of Sciences of the …, 2018):

Target: the molecule itself
Assay: SEC

Row | Protein | stoichiometry N
1 | CUB1-EGF-CUB2 fragment of C1s (domain or fragment, N-linked carbohydrate at one site (density seen in the crystals)) EPTMYGEILSPNYPQAYPSEVEKSWDIEVPEGYGIHLYFTHLDIELSENCAYDSVQIISGDTEEGRLCGQRSSNNPHSPIVEEFQVPYNKLQVIFKSDFSNEERFTGFAAYYVATDINECTDFVDVPCSHFCNNFIGGYFCSCPPEYFLHDDMKNCGVNCSGDVFTALIGEIASPNYPKPYPENSRCEYQIRLEKGFQVVVTLRREDFDVEAADSAGNCLDSLVFVAGDRQFGPYCGHGFPGPLNIETKSNALDIIFQTDLTGQKKGWKLRYHGDPM | 2
2 | CUB1-EGF-CUB2 fragment of C1r (domain or fragment, UniProt P00736 18-307, looked up, N-linked carbohydrate at two sites (density seen in the crystals)) SIPIPQKLFGEVTSPLFPKPYPNNFETTTVITVPTGYRVKLVFQQFDLEPSEGCFYDYVKISADKKSLGRFCGQLGSPLGNPPGKKEFMSQGNKMLLTFHTDFSNEENGTIMFYKGFLAYYQAVDLDECASRSKSGEEDPQPQCQHLCHNYVGGYFCSCRPGYELQEDTHSCQAECSSELYTEASGYISSLEYPRSYPPDLRCNYSIRVERGLTLHLKFLEPFDIDDHQQVHCPYDQLQIYANGKNIGEFCGKQRPPDLDTSSNAVDLLFFTDESGDSRGWKLRYTTEII | 2
